Test results reported in the supplement of paper PMC9170038.

System: K4 kissing-loop RNA reporter
Experiment: apparent KD of K4 kissing-loop reporter; higher = weaker reporter binding
Conditions: Eterna round: R107
Description: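 RNA-MaP round R107: designed RNA switches with theophylline, tryptophan, arginine or FMN aptamers are transcribed on-chip within common flanks. They are titrated with a labelled K4 kissing-loop RNA reporter in RNA-MaP buffer (100 mM Tris pH 7.5, 80 mM KCl, 4 mM MgCl2), without ligand or with the indicated ligand. Median apparent KD per design.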

[1] = input ligand: theophylline 20 uM
[2] = input ligand: tryptophan 2.4 mM
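Note: bound reporter read as fluorescence of individual clusters on recovered sequencing chips by microscopy, with normalized cluster intensities fitted with a binding model.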

Row | Sequence | apparent KD of K4 kissing-loop reporter (input ligand: FMN 200 uM) | apparent KD of K4 kissing-loop reporter (input ligand: arginine 13.2 mM) | apparent KD of K4 kissing-loop reporter (input ligand: none) | apparent KD of K4 kissing-loop reporter [1] | apparent KD of K4 kissing-loop reporter [2]
1 | CGUGCCCAGCCGGAUACCAGUGACCCGCUGGGAACCGCGGGCCCAGAGUGAUGUUCGGGACACCCUUGGCAGCCGCCUGGGCGGG [#2 Same State - Theophylline B Attempt #15 (HarryS)] | 1020 nM | 392 nM | 1100 nM | 512 nM | 453 nM
2 | CGUUCCUCUGUCGAUACCAGCUUCAGUUGGCGGCCAGUGAUGUUGGUAUCGCCGAUGCCAAGCCCUUGGCAGCGACAUGAGAACC [Uslaessobi] | 200 nM | 166 nM | 166 nM | 105 nM | 172 nM
3 | CGUUUAUUGCAGGAUACCAGUACCCAUUAUGUACGUUUAUAGUAGAGUGAUGUUCUAAAGUACCCUUGGCAGCUUCCCGUGACCC [#22 K4 Theophylline B Exclusion] | 119 nM | 193 nM | 142 nM | 188 nM | 90.3 nM
4 | CUAUAAGUGCCGAGUGAUGUUCGGCCAAUACGAGGACCGGUACGGCCGCCACUCGGUCAGUGAGUGCCCACCGGGCGUGGCUGAC [Leedgeis] | 261 nM | 225 nM | 209 nM | 253 nM | 124 nM
5 | CUAUGGAAACAUAGUAAUCGGGAAACCGAUACCAGUAUGGAAACAUACCCUUGGCAGCGGAAUGAUUAAACGGAGUGAUGUUCCG [Theophylline A K4 17] | 354 nM | 243 nM | 285 nM | 237 nM | 261 nM
6 | CUCACAGUGAUGUUGUGGGCCGAGAGUGAUACCAGCCGUAUUUGUGGCCCUUGGCAGCGCAGAACCAGUGAUGUUGGUUACUUGG [Same State Theophylline A GF 23] | 229 nM | 286 nM | 271 nM | 277 nM | 238 nM
7 | CUGACCAACAGCGAUACCAGUGUGGAGUGAUGUUCCCUGGUCCGGGCUGAUGUUCCCUUGCGCCCUUGGCAGCGCAGAAGCAGGU [Exclusion Theophylline B GF 13] | 433 nM | 295 nM | 359 nM | 349 nM | 338 nM
8 | CUGAGCUGCAGCGAUACCAGUGUGGAGUGAUGUUCCCUGGUCCGGGCUGUUGUUCCCUUGCGCCCUUGGCAGCGCAGGAGCAGGG [Exclusion Theophylline B GF 15] | 506 nM | 352 nM | 422 nM | 378 nM | 383 nM
9 | CUUAGGAGUGGUGUUGAUUAGGGAGCGGAAGGAGCGCCAAUGAUGGCAGGUAGGUCGCCGGAAUGUAGUGAUGUUGCAUAGAGGG [ExArgA.S] | 476 nM | 225 nM | 415 nM | 236 nM | 267 nM
10 | CUUCUCCUUCCAAUCUCGGCCAACACGGGACGAGGACCGGUACGGCCGCCACUCGUGCAGUGAUGUUGCACGAUGGUGACGGAGA [Queronmaan] | 95.7 nM | 87.6 nM | 94.2 nM | 86.9 nM | 217 nM
11 | GAAAGAAAGAAUGAUACCAGACACCCGAGUGAUGUUCGGAGCAGAGUGAUGUUCUAAUAAGUCCCUUGGCAGCAUAAAAGAAAAG [Same State Theophylline B GF 1] | 240 nM | 256 nM | 322 nM | 331 nM | 246 nM
12 | GACAUCUAUCGCCGAUAGUGUUUAUCUUGGGAGGAUAUGUCAGCGGACAGAAGGCCCAGUGAUGUUGGGUAGAUGACCGUUGCCU [Orerditi] | 337 nM | 123 nM | 131 nM | 131 nM | 128 nM
13 | GACGGGCAGUGAUGUUGCCGGUCUCUUGGACGAGGACCGGUACGGCCGCCACUCGAUCUGAUGCAAGAAUCGCAUCUUUUAAUAA [Biququan] | 151 nM | 103 nM | 166 nM | 312 nM | 273 nM
14 | GACUCAUGUAGAAGGAGCGUCAGAAGUUAUAGACAUGAGUGAUGUUCAUGUUAGCUGAUUUGACAGGUAGGUCGCUACAGCAGGA [KL-SSArg B16 #analogue] | 126 nM | 100 nM | 126 nM | 114 nM | 121 nM
15 | GAGAUAGAGGCGGCCGCCACUAGUGAUGUUAGUGAUGUUAGAAAGAGAAUAGAACAGGGAUUUGAUAGGACCGGGCCAGAUGGAG [wwemullin] | 57.6 nM | 51.3 nM | 48.9 nM | 48.7 nM | 63 nM
16 | GAGCCAACCGUCGAUACCAGCCGCACGUCAUUCACUCAAUGCUGAGGAGCCAGUGAUGUUGGCCCUUGGCAGCGAAGCAACGAUC [theeternabot_exclusion_KL_Theo_B_43] | 97.5 nM | 91.8 nM | 93.5 nM | 93.5 nM | 93.2 nM
